Results: patent publication US20250154240A1, “ANTI-HUMAN CXCL1 ANTIBODY” (CHIOME BIOSCIENCE INC., priority 2022, published 2025)

T1: HuCXCL1 (Homo sapiens, UniProt P09341)
T1 construct: made in house; host or cells: Expi293 expression system (transient), protein from the culture supernatant
T1 sequence (P09341 35-107): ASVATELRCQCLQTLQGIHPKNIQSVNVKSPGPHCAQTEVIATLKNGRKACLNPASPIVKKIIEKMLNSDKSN

T2: human CXCL3 (Homo sapiens, UniProt P19876)
T2 sequence (P19876 35-107): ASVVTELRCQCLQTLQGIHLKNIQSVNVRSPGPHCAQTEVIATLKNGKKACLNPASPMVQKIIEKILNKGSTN


Key:
HuCXCL1 = biological target: T1, HuCXCL1; assay: HuCXCL1 binding activity, antigen-immobilized ELISA; details: HuCXCL1 immobilized at 3 μg/mL
Description: Antibodies produced from the hybridomas were evaluated for their HuCXCL1 binding activity by ELISA assay using plates on which the antigen (HuCXCL1 protein) used for immunization had been directly immobilized.
To 96-well plates, phosphate-buffered saline (PBS) containing 3 μg/mL of HuCXCL1 was added in a volume of 50 μL per well, and the plates were allowed to stand overnight at 4° C. After removal of the antigen solution, PBS containing 2% skimmed milk and 0.05% Tween-20 (hereinafter referred to as the blocking solution) was added to each well for blocking reaction, and the plates were allowed to stand at room temperature for 1 hour. After removal of the blocking solution, the culture supernatants of the hybridomas or DT40 were each added in a volume of 50 µL per well and reacted at room temperature for 1 hour. After removal of the culture supernatants and washing with PBS containing 0.05% Tween-20, an HRP-labeled secondary antibody diluted with the blocking solution was added and reacted at room temperature for 1 hour. After washing, TMB (Dako) was added as a chromogenic substrate solution to cause color development, and after 10 minutes, 1 N sulfuric acid was added to stop the reaction, followed by measurement of absorbance at 450 nm.

human CXCL3 = biological target: T2, human CXCL3; assay: Binding to human CXCL3
[1] = system: OCUM-12 gastric cancer cell line; assay: Antitumor activity test, model with OCUM-12 orthotopic transplantation (prevention model); type: in vivo, mouse; details: for Antitumor activity (tumor growth, tumor size): 20 mg/kg intraperitoneally twice a week from the day following transplantation
Description: A model with OCUM-12 orthotopic transplantation was prepared to evaluate the above 4 types of candidate antibodies for their in vivo CXCR2 migration inhibitory activity and antitumor activity in a xenograft model with OCUM-12 orthotopic transplantation.
For use as mice, female nude mice (BALB/cAJcl-nu/nu) at 5 to 6 weeks of age were purchased from CLEA Japan, Inc., Japan. For use as human cancer cells, a gastric cancer cell line, OCUM-12, was provided by University Public Corporation Osaka, Japan.
OCUM-12 cells were cultured in D-MED medium (FUJIFILM Wako Pure Chemical Corporation, Japan) supplemented with 10% fetal bovine serum (FBS; Sigma-Aldrich Corporation) and 1/100 volumes of a penicillin-streptomycin mixture (Nacalai Tesque, Inc., Japan). The cells to be transplanted were detached with 0.25% trypsin/0.02% EDTA (Thermo Fisher Scientific) and washed with PBS, and 4× 10^5 cells per mouse were transplanted into the gastric wall of each mouse.
On the day following the above transplantation, the mice were randomized into groups (8 or 6 mice per group) and intraperitoneally administered with PBS as a control and with 4 types of candidate antibodies (1A-7H10, 4A-2F7, 5A-5E11 and 028-8-12) and 3 types of non-candidate antibodies (1A-3C6, 1A-2H3 and 4A-5B11) at a dose of 20 mg/kg. In addition, mouse IgG1 as a control was intraperitoneally administered at a dose of 20 mg/kg, and 3 types of antibodies (5A-5E11, 1A-4H10 and 4A-7G7) among the candidate antibodies were intraperitoneally administered at a dose of 20 mg/kg. The administration of these antibodies was then continued with a frequency of twice a week until the completion of the test. After 3 weeks had passed from the transplantation, the mice were sacrificed, and the short- and long-axis diameters of tumors formed in their gastric walls were each measured with a caliper. The tumor size was calculated according to the following: 1/2 short-axis diameter (mm)×1/2 long-axis diameter (mm)×3.14.
Navarixin is among small molecular compounds that act on CXCR2 and inhibit CXCL1-CXCR2 signaling. […] Then, using a model with OCUM-12 orthotopic transplantation, the migration inhibition of CXCR2-expressing cells and antitumor activity were evaluated in vivo for Navarixin. As a vehicle, ultrapure water containing 20% 2-hydroxypropyl-β-cyclodextrin (FUJIFILM Wako Pure Chemical Corporation, Japan) was used. Navarixin (MedChemExpress) was dissolved in ultrapure water containing 20% 2-hydroxypropyl-β-cyclodextrin, and orally administered at a dose of 100 mg/kg/day in a schedule of once a day for 5 consecutive days, followed by a 2-day withdrawal.
The humanized antibodies were evaluated for their in vivo antitumor activity and CXCR2 migration inhibitory activity in a xenograft model with OCUM-12 orthotopic transplantation. Procedures for the evaluation are shown below.
For use as mice, female nude mice (BALB/cAJcl-nu/nu) at 5 to 6 weeks of age were purchased from CLEA Japan, Inc., Japan. For use as human cancer cells, gastric cancer cell line, OCUM-12, was provided by Osaka Metropolitan University, Japan.
OCUM-12 cells were cultured in D-MED medium (FUJIFILM Wako Pure Chemical Corporation, Japan) supplemented with 10% fetal bovine serum (hereinafter abbreviated as FBS; Sigma-Aldrich Corporation) and 1/100 volumes of a penicillin-streptomycin mixture (Nacalai Tesque, Inc., Japan). The cells to be transplanted were detached with 0.25% trypsin/0.02% EDTA (Thermo Fisher Scientific) and washed with PBS, and 4×10^5 cells per mouse were transplanted into the gastric wall of each mouse. On the day following the transplantation, the mice were randomized into groups (8 mice per group) and intraperitoneally administered with test antibodies at a dose of 400 μg/head. PBS was intraperitoneally administered in a volume of 200 μL with a frequency of twice a week for 3 weeks, starting from the day following the transplantation. […]

Binding activity to HuCXCL1 ELISA (HuCXCL1) | Binding to human CXCL3 (human CXCL3) | Molecule | Antitumor activity (tumor growth, tumor size) ([1]; 3 weeks, compared to PBS) | Antitumor activity (tumor area) ([1]; 400 μg/head intraperitoneally twice a week, 3 weeks, compared to hIgG1 antibody) | Dose significantly suppressing the tumor area ([1]; prevention model, compared to PBS)
∘ | also bind | 4A-2F7: mouse monoclonal anti-HuCXCL1 antibody clone; VH SEQ ID NO: 9, VL SEQ ID NO: 13 (antibody, listed as Mus musculus, V domains shown) VH: QVTLKESGPGILKPSQTLSLTCSFSGFSLSTSGMGVDWIRQPSGKGLEWLAHIWWDDDKYYNPSLKSQLTISKDTSRNQVFLKITSVDTADTATYYCARSYGYDMDYYAMDYWGQGTSVTVSS VL: DIQMTQSPSSLSASLGERVSLTCRASQEISGYLSWLQQKPDGTIKRLIYAASTLDSGVPKRFSGSRSGSDYSLTISSLESEDFADYYCLQYASYPPWTFGGGTKLEIK | significantly suppress tumor growth |  | 
∘ | also bind | 1A-7H10: mouse monoclonal anti-HuCXCL1 antibody clone; VH SEQ ID NO: 1, VL SEQ ID NO: 5 (antibody, listed as Mus musculus, V domains shown) VH: QVQLKESGPVLVAPSQSLSITCSVSGFSSTTYGVHWVRQPPGQGLEWLGVIWAGGSTNYNSALMSRLSISKDNSKSQVFLKMNSLQTDDTAMYYCATQYHYPFAYWGQGTLVTVSA VL: NIVMTQSPKSMSMSVGERVTLSCKASENVGIYVSWYQQKPEQSPKLMIYGASNRNTGVPDRFTGSGSATDFTLTISSVQAEDLADYYCGQSYSYPLTFGAGTKLELK | significantly suppress tumor growth |  | 
∘ | also bind | 028-8-12: human antibody against CXCL1 from the human ADLib technique; VH SEQ ID NO: 25, VL SEQ ID NO: 29 (antibody, listed as Gallus gallus, V domains shown) VH: EVQLLESGGGLVQPGGSLRLSCAASGFTFSELSMSWVRQAPGKGLEWVSAISGSGGSTYYADSVKGRFTISRDNSKNTLYLQMNSLRAEDTAVYYCAREGGRLEPYYYYYAMDVWGQGTPVTVSS VL: DIQMTQSPSSLSASVGDRVTITCRASQSISDNLHWYQQKPGKAPKLLIYDASNLESGVPSRFSGSGSGTDFTLTINSLQPEDFATYYCQQYYSTPLTFGQGTKLEIK | significantly suppress tumor growth |  | 
 |  | Hu5A-5E11: humanized antibody VH1/VL1; VH SEQ ID NO: 76, VL SEQ ID NO: 78 (antibody, V domains shown) VH: QVQLVQSGAEVKKPGSSVKVSCKASGYAFSDYWMNWVRQAPGQGLEWIGQIYPGSGDTNYNAKFKGKGTITADKSTSTAYMELSSLRSEDTAVYYCARERDYDVAMDYWGQGTTVTVSS VL: DIQMTQSPSSLSASVGDRVTITCKASQDINKYIAWFQQKPGKAPKLVIHYTSILQPGVPSRFSGSGSGTDYTFTISSLQPEDIATYYCLQYDNLPWTFGGGTKVEIK |  | significantly suppress an increase in the tumor area | ≥ 60 μg/head
∘ | also bind | 5A-5E11: mouse monoclonal anti-HuCXCL1 antibody clone; VH SEQ ID NO: 17, VL SEQ ID NO: 21 (antibody, listed as Mus musculus, V domains shown) VH: QVQLQQSGAELVRPGSSVKISCKASGYAFSDYWMNWVKQRPGQGLEWIGQIYPGDGDTNYNGKFKGKGTLTADKSSSTAYMQLNSLTSEDSAVYFCARERDYDVAMDYWGQGTSVTVSS VL: DIQMTQSPSSLSASLGGKVTITCKASQDINKYIAWFQHKPGKGPRLVIHYTSILQPGIPSRFSGVGSGRDYSFSIRNLEPEDIATYYCLQYDNLPWTFGGGTKLEIK | significantly suppress tumor growth |  | 
